Kd, koff and kon data for one substance are collected here from paper PMC12501226.

For the assay, the target named is Recombinant SARS-CoV-1 spike protein 2P (residues 12-1193) (SARS-CoV-1) (UniProt P59594). Description: SPR. In general terms: Surface plasmon resonance follows binding to a sensor surface in real time, without labels.

With “ACE2 monomer (human extracellular ACE2 domain, residues 18-615, cut from ACE2-TEV-Fc) (from UniProt Q9BYF1 18-615) (domain or fragment)”, the dissociation constant (Kd) came out at 71 nM, the dissociation rate constant (koff) stood at 0.0016 s⁻¹ and the kon was determined as 170000 M⁻¹ s⁻¹.

Broadly, the Kd is the free concentration of one partner at which half of the binding sites on the other are occupied at equilibrium, for simple one-to-one binding. What is called koff is the first-order rate constant of dissociation. What is called kon is the second-order rate constant of association.
